Experimental data published in US5503978.

Legend:
[1] = biological target: T1, HIV-1 reverse transcriptase (HIV-1) (UniProt P04585+P04585); experiment: inhibition; conditions: almost no inhibition at 81 nM
[2] = biological target: T1, HIV-1 reverse transcriptase (HIV-1); experiment: filter; conditions: apparent Kd of degenerate library
[3] = tested on: AMV reverse transcriptase (Avian myeloblastosis virus); conditions: intramolecular 3' extension to end of template; 100 nM RT

Sequence | Ki [1] [nM] | Kd [2] [nM] | activity [3] [% initiation]
CCCCTGCAGGTGATTTTGCTCAAGTNNNNNNNNNNNNNNNNNNNNNNNNNNNNNNNNNNNAGTATCGCTAATCAGGCGGAT [R0 degenerate 35N ssDNA library] | > 3000 | 1400 | –
ATCCGCCTGATTAGCGATACTTACGTGAGCGTGCTGTCCCCTAAAGGTGATACGTCACTTGAGCAAAATCACCTGCAGGGG [RT26] | – | – | 50
